Source: patent US20220023399

Columns and labels:
[1] = biological target: human serum albumin
[2] = biological target: T1, rabbit serum albumin, P49065
T1 chain: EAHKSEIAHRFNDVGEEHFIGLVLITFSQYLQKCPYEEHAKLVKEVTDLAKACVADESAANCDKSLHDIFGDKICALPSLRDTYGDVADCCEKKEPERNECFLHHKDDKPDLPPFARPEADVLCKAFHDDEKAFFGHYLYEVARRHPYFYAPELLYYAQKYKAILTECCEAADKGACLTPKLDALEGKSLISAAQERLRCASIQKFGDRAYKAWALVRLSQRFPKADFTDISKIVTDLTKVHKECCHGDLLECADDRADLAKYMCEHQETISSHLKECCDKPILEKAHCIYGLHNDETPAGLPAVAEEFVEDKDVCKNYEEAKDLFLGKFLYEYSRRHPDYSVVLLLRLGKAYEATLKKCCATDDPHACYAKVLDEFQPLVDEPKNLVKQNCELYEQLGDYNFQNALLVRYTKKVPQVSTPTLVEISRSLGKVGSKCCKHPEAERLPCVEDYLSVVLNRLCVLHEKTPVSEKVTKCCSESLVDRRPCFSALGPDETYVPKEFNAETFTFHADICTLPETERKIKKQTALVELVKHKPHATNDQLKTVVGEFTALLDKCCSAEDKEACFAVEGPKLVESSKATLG

B1: PlySs2 (CF-301) lysin (protein)
chain: MTTVNEALNNVRAQVGSGVSVGNGECYALASWYERMISPDATVGLGAGVGWVSGAIGDTISAKNIGSSYNWQANGWTVSTSGPFKAGQIVTLGATPGNPYGHVVIVEAVDGDRLTILEQNYGGKRYPVRNYYSAASYRQQVVHYITPPGTVAQSAPNLAGSRSYRETGTMTVTVDALNVRRAPNTSGEIVAVYKRGESFDYDTVIIDVNGYVWVSYIGGSGKRNYVATGATKDGKRFGNAWGTFK
Fold decrease in CF-301 MIC compared to media alone (delipidated human serum + Oleate 0.625 mg/mL) [1]: 8 fold | Fold decrease in CF-301 MIC compared to media alone (delipidated human serum + Palmitate 0.625 mg/mL) [1]: 16 fold | Fold decrease in CF-301 MIC compared to media alone (delipidated human serum + Palmitate + Oleate) [1]: 16 fold | Fold decrease in MIC (50% MHB/50% heat-inactivated human serum supplemented with HSA, 40 mg/mL) [1]: 4 fold | Fold decrease in MIC (MHB supplemented with HSA, 40 mg/mL) [1]: 8 fold | Fold increase in CF-301 specific activity with rHSA, 4% [1]: 17.8 fold | Specific Activity (Units/mg) of CF-301 in the lytic assay with rHSA, 4% [1]: 43100 Units/mg | ΣFICavg (checkerboard, S. aureus, heat-inactivated human serum); HSA fraction V [1]: ≤0.086 | ΣFICavg (checkerboard, S. aureus, heat-inactivated human serum); HSA recombinant [1]: ≤0.1 | Fold decrease in MIC (50% MHB/50% heat-inactivated human serum supplemented with RabSA, 40 mg/mL) [2]: 4 fold | Fold decrease in MIC (MHB supplemented with RabSA, 40 mg/mL) [2]: 8 fold | ΣFICavg (checkerboard, S. aureus, heat-inactivated human serum); rabbit serum albumin from serum [2]: ≤0.1
